The DeepSol protein solubility set

assay: soluble on expression in E. coli; label from the status in PepcDB or PDB records

Soluble on expression in E. coli, not soluble:
MGSDKIHHHHHHMAVRIVSRQPLTKGWSTDQKYKVQLEDGRLGLLRIAERPAYEAKRLEFQLVENLFGLGLPVAEPLSFWADDLSVYTLYEWVEGQDMNEVATSLSDSVLYDLGCQSGKFLRTLHALPIDQSQRDWNSFYQVKIDNKLAAYQAASHSYPTGPAMIDFVQANRHLLEGRPIAYHHGDFHTGNFLLGPDGKLKILDFDRYDIGDPWEEFNRLIFTADLSPAFARGQVDAYFDGAIPEEFWKLMALYVTVNCLAALSWAEQVDSEQIPMMKLQAQKISEWYEYFNHHLPKWYM, MGSDKIHHHHHHMCRILGYLGTPVLLEDLLYAPDSSLLNQTIGAQMLQMLNLAGFGMAAWDPASHDPHLPFRYRTTQVALFDRNLKALAGKLRPGALLAHIRGVPYNSTVQINEQNCHPFRFEGVPLAMAHNGDLAGFREMRFDLAPHVRPEFARQIQGSTDSEWIYALAVSALDDPAGVNEPDAILAAIRRALSILRDARARHGITRSSSTNLMFCDGVNLVAVRFTFDFGRFDAGKLQGTTEYLSMWYTFGRDYGLHDGEWKLTGGAASADSVMVASEPLTRDFATWIEVPEYSALIVRHEGARRRAEIHALEV, MGSDKIHHHHHHMCSDHIRLPAQLAAGDVAIRVENLSKRFAVYHTRLERLKHIVAPRRTKGFAEFWALDHVDLTIGRGEACAIIGRNGSGKSTLLQILCGTLRATSGRVAVNGRVAALLELGAGFNADFTGRENVYLNGAVLGLSHTEINERFVEIEAFAEVGDFIDQPVKTYSSGMYVRLAFAIAIHVDPQILIVDEALAVGDARFQAKCLNRIKKMQADGVTLLFVSHDVSAVRTLCDRALWLDCGKVKMLADAFSVTAQYSQFLFEGEDYAVAGNGSGSPQDSSGALQSAASQDISPSAHPEEANQSRAGACGEELMAMHRPINHWGSHVGSIVQAGIYNARGERASTFVAGEPIEVRVIFRPPLNADRKTMSVAFSLKDLRGTDLIVSTTWDQRRLDFEQAGGEACIRFRLRNQLNRGSYLLAVALEDRAGVAPQYYEYIEGAHYFTSLVEDTLFGSFVVDVEQTIEPGHSLYANARVSV, MGSDKIHHHHHHMDAHRYCQERAAASGSSFYYSFVFLPTEVRRAITAFYALCRELDDVVDECHERQLAELKLAWWREEIGRFAAGAATHPATRALADTARGASVQPALLLEIVDGMAMDLEHARYADFRALKLYCHRAASVVGEIAAGIFEGARGEHDREVRRYAHELGLAFQLTNIIRDVGEDARRGRIYLPLDEMARFGVAEADVLEGRDTPAFRALMQFQYERAVAHYERALATLPSAARRAQRPGLVMAAIYRSLLDEIRRDGFPVLRARIALTPLRKLWLASRTWLFP, MGSDKIHHHHHHMDEVLSFKRGRVPLLISMPHPGTRLTPAVDAGLVEEARALTDTDWHIPRLYDFAEELGASTLAAHYSRYVVDLNRPSDDKPLYSTATTGLYPDTLFDGRPLYREGMAPSAEERMRYLAEVWTPYHRTIAEELARLKAEFGYALLWDAHSIRSHVPHLFDGRLPDFNLGTNAGASCDPALAARLEAVCAAAEGYSHVLNGRFKGGHITRHYGQPEQHVHAVQLELAQCTYMDEQAPFAYRADLAEATRAVIRELLESLLAWGRERYA, MGSDKIHHHHHHMDFELDDGWDVYPIYGNTNKAFMGKKNHQRLFLKRNASPFLAALSMEEITPRLIWTKRISSGDTLTAQEWLNGQTLTKQQMRLPEVAHLLARVHNSELLHRMLRKVGGQSVRPQDFIQQYLQDLPDDLRHHPLMARVLDELRGTAPTLPATDYRVCHGDLNHKNWLLSDRQQLYLVDWDSARFADPASDISMLLCEYVPLSDWQQWLSEYGETMTTALRTRVVWYAKINLLLNIKDNYYRNQYHQMNHEIIFLEELSQYEV, MGSDKIHHHHHHMDFKQVQQSFIDYIRDPSRPLPADTDVRRMQVYRELFFNNVLGFVSNGFPVLKSLYSEEEWLALVQSFFSQHDCQSPIFIDIAGEFLDFLQQQYQPTANDPVFMLELAHYEWLELAVAVAQASGDESQLSPAQIPMQALCLSKTARVAQYHFEVQHIRQDYRPQQQLDTPVFFCLYQDADCEVCFLQLNPLSAQVLAFLQAQGQASFKEIVDWLTITYPQMAPEIIAQGCTQLLEQLAAKGIVRGRQS, MGSDKIHHHHHHMDFYQVIKTRTSTKKFKNTPIAAPKLDNMLNAAMMSPSWKNKTSYSFVIVDDERKKDAIANFIINSDEDAKNSVKDAPMVVAIVGDTTESGHINGKEYYLVDSAIAMEHFVLAAANEGYGTCWIASFDEKRMKDELRIPDKYSVVAITPVGEVGESKAHYEPKDIENHIYRNYWSMPYSEKKHLVMK, MGSDKIHHHHHHMDHAIYTAMGGASQSLEKQAITANNLANASTPGFRAQLSALRAVPVNGLTLPTRTLVVASTPGADMTEGVMNYTGRAMDVALPKESWLAVQTANGGEAYTRNGNMEINADGQLTIQGRVVMGDGGPIDIPPQAQISISADGTISALNAGDPPNTIAQLGRLKLVKATGQEVERSDDGLFRLTQQAQQQRGNVLQNDPTVRIMPGVIEGSNVNTVDTMVDMIANARRFEMQMKVISSVDDNAQRANQILAMG, MGSDKIHHHHHHMDKQLWEKAVAFHGHECPGLAIGFRACEAVQEKMGLKFSQDEEVVCVTENDACGADAVQVITGCSFGKGNLIYRGTGKMAFSFFSRNTGESMRIVLKPSSSEMDRQERQNYILTAPMDDVFEFKKPGFTLPKQARLFKTVICEVCGEGAPEHKMRLQEGKKVCLDCFEDYSRGY, MGSDKIHHHHHHMDLQNKTLLITGIDEFIGLRAAELAITQGMKVRGLQTSTNKDKAQKLGAEVIVGSITDAAIAHKACQGVDIVLHTEQLTEEAGPIKNFREINVNGAVNMAKAAKNAGVKCFVHLSSVMVYGFNYSDRITESGTLSGDNNPYCQTKIEAETELLPLNSPPDFGLIIIRAGDIYGPGSIPWIVRPILMMRQKLFAYANEGQGVINHVYIDNLIDAIFLAVEKDAYGEIFNITDGEETSWKEYFMRLAAMEGASAPMSIPKDEMKLFLKLRNQGQKLFRKKADILPESVDFMTRPYAYSITKAQTILDYKPKVDLEQGLSQTKIWLQNTDIQKLVK, MGSDKIHHHHHHMDLYFVKFRVTSKLTSEIVQGYFLGKLNQIPEYDFFVIPGRYARKYSVDLNLGFEDFLEDFKAKKESALKEVLEASAITDEFFDFWLIQSRKQNLRLVGSEFFRLVESGDHEALRVFIADLFREWSEKLEVEVVGVPLDYEDVSLEVVKEHFEELSTDEVFKLFQREDLRNLPEVFPVLDPLNGVTIREIDVEERIDFVILNYGNEEFSEKFKRFLKEKFGTENVASLPGKVLSKEIVKTREGTLYLLKVEFEEGIIGKAIVSPNLKIKRGESRVKISDEEWMEKIGEMLKEGEESKQEKLKLRNSPQPVQKTTSSD, MGSDKIHHHHHHMDNSEEKKLEALGAFEISRKMLALAQKNEKSNIFLNAGRGNPNWIQTLARLAFVRLVQFGVTESKLTINNGIMAGYINTDGIRERLFAFLDPDKNDEDKFLIDAVNYCHTELGLNRDKVVAEWVNGAVANNYPVPDRCLVNTEKIINYFLQELSYKDANLAEQTDLFPTEGGTAAIVYAFHSLAENHLLKKGDKIAINEPIFTPYLRIPELKDYELVEVDLHSYEKNDWEIEPNEIEKLKDPSIKALIVVNPTNPTSKEFDTNALNAIKQAVEKNPKLMIISDEVYGAFVPNFKSIYSVVPYNTMLVYSYSKLFGCTGWRLGVIALNEKNVFDDNIAHLDKVELRQLHKRYSSVVLDPDKMKFIDRLCADSRSIGLYHTAGLSTPQQIMEALFSMTHLLTSTNGGSDDPYIDIARKLVSERYDQLHDAMQAPKDETDTNTHYYSLIDIYRLAEKIYGKEFRDYLTNNFEQVDFLLKLAEKNGVVLVDGVGFGAKPGELRVSQANLPTEDYALIGKQVLELLKEYYEEFKQNN, MGSDKIHHHHHHMDQSFQVNLNRLRYFHAILEHGSIRAAAERLNTAPSVVSRQLQLLESEIGAPLFERRQHGMIATEAATLLVEYTHACRIGLEQFHESLHGELRGRVEIALTVGYVEDLMDSVITGFLHRHPHVAVELNVRTADGVVDDVLRKRAHIGLTYNPSLPPEIRECLSVEHPTFLAVAPDHPLAKRGEPLELRDAVRYPLALMPAPYYGVGQIVHTVAHAENIPLAPRLVTNSVPAMRRFVRSGNGVAFLTRLLVEDDLERGEIVALRMRNPLFNSPCGKVLVHNERALPRAANEILARIVRDLPSFKS, MGSDKIHHHHHHMDQSLFQNGNFQPLASRMRPQTLDEFVGQTHLLGKDKVLSNLIEHDEISSMIFWGPPGVGKTTLARIIARRTKAQFVTFSAVTSGIKEIKQVMKEAEQNRELGQKTIVFVDEIHRFNKAQQDAFLPYVERGSIILIGATTENPSFEVNAALLSRTRVFVLHGLTSAELVDLLQRALKDPRGYGLQKVKIGKKLLAQIADFANGDARIALNTLEMAVTNAETKGGVITVTQADVAQLLTKKALLYDKNGEEHYNLISALHKSMRNSDVDAAIYWLARMLEAGEDPLYVARRLVRFASEDIGMADSRALEITIAVYQACQFIGMPECTVHLTHAVTYLALAPKSNALYTAYEGAKKDATETLAEPVPLQIRNGVTDLMQDLGYGKDYQYAHNTKDKLTTMQTMPDNLIGKTYYHPTTQGSEAKVKERLEQIKAWHAQHPDPDSPKTKKKS, MGSDKIHHHHHHMDRIIYTAGSGASQAMQQQSVVNHNLSNVSTPGFRAELDAMRAVPVQGDGRLATRTSVAATTSGTDFSPGYMNATGRRLDVAMQGDAFLAIQDPQGGEAYTRRGDLQVDADGMLTVKGEPVMGEQGPIVVPPDAEFSIGADGSISVLEAGANPDEIAPVGRLKLVTPDLQALTRGDDGWFRLPPGDDAEIAAPQPLDEDARLQSGVLEGSNVSATDAMVAMIDGARRYDMQMKVIESADQNAQRANSLLSVQA, MGSDKIHHHHHHMDSSAAFSNPTKLRADLLRGRLDVSVDSSTIAPDSLFGFAERRNPKRAFLFVSRVLGRHIPARPSVMLKSFQDLAHKIPVDLPGPVLVIGMAETAVGLGAGVHRAYSETHSDALYLVSTRHPTGTELFARFEEEHSHASAHLIHLPADPALRDMMLGARSLVLVDDEASTGKTFINLHQALVEAGLSKIERVVTCVLTDWSAGAVSTSMGAVAEQVSLLQGSYSFDEDVSAPLPDMPEVGTVAMGDWPLLTANDWGRMGVLAVADTLAPGLTVNKGERVLVVGTSEFVWRPFLLAERLEKAGADVHFSSTSRSPIALGHAIDHALSFSDNYGLGIPNFLYNVRPGQFDRVLICTETPRQAVPAELIEALNAEVICDE, MGSDKIHHHHHHMDSSMPSTPHASAYPIGKPGQVWGEEEKSLWLNKQVIQRSYAEQVLALILDPASISANTADPMETTATQSNAHPEITSALELVHYNTLAYNTLHQGASDYPVYLFKSRHWDETKPNVLITGGVHGYETSGVQGAIRFLRTKAQHYCQHANLIIVPCLSPWGYETINRWNPHAIDPNRSFVHDTAPHDTAMTQAKAQASKVQLSDVQEAHALMAALGELAVNFSLHIDLHETTDSDNAEFRPALAARDGTSYDNWDIPDGFYLVGDTLKPQAEFQKAVINAVNAITHIAPAGEHARLIGVPIAQFGVINYPTKALGLCAGMTDATYCTTTEVYPDSPLVDDENCILAQVAAITGALDYVIKNR
